# Test results as given in US20170253670A1 (Hoffmann-La Roche, published 2017).
# Where two headings read alike, the source gives them in different places.
# What was measured:
# [1] = target: T1, human FolR1 monovalent Fc fusion, biotinylated (human, UniProt P15328 25-233, biotin on C-terminal Avi-tag ; biotin on the C-terminal Avi-tag of the Fc-knob chain (tag not in the letters)); experiment: SPR ProteOn, Fab analyte, antigen on chip
# T1 construct: ECD linked to hinge of Fc-knob, co-expressed with Fc-hole; also called huFolR1; huFolR1-Fc; not shown: hinge-Fc(knob)-Avi-tag fused to the ECD, and the co-expressed Fc(hole) chain
# Protocol: Immobilization of antigens (ligand): Recombinant antigens were diluted with PBST (10 mM phosphate, 150 mM sodium chloride pH 7.4, 0.005% Tween 20) to 10 μg/ml, then injected at 30 μl/minute in vertical orientation. Injection of analytes: For ‘one-shot kinetics’ measurements, injection direction was changed to horizontal orientation, two-fold dilution series of purified Fab (varying concentration ranges) were injected simultaneously along separate channels 1-5, with association times of 200 s, and dissociation times of 600 s. Buffer (PBST) was injected along the sixth channel to provide an “in-line” blank for referencing. Association rate constants (kₒₙ) and dissociation rate constants (koff) were calculated using a simple one-to-one Langmuir binding model in ProteOn Manager v3.1 software by simultaneously fitting the association and dissociation sensorgrams. The equilibrium dissociation constant (KD) was calculated as the ratio koff/kₒₙ.
# [2] = target: T2, cyno FolR1 on transiently transfected HEK cells (cynomolgus); experiment: flow cytometry on HEK cells transiently transfected with cyno FolR1, fluorescently labeled anti-human secondary antibody
# T2 construct: whole, on cells; also called cyFolR1
# Protocol: Cross-reactivity of the FolR1 antibodies to cyno FolR1 was addressed on HEK cells transiently transfected with cyFolR1 by flow cytometry. The antibodies were detected with a fluorescently labeled anti-human secondary antibody.
# (§1) Target cells as indicated were harvested with Cell Dissociation Buffer, washed with PBS and resuspended in FACS buffer. The antibody staining was performed in a 96well round bottom plate. Therefore 200′000 cells were seeded per well. The plate was centrifuged for 4 min at 400 g and the supernatant was removed. The test antibodies were diluted in FACS buffer and 20 μl of the antibody solution were added to the cells for 30 min at 4° C.
# [3] = target: T3, recombinant human BCMA Fc(kih) (human, UniProt Q02223 4-53, biotin on avi-tag where coupled to SA chip ; biotin on the avi-tag of the Fc-knob chain where coupled to the SA chip (tag not in the letters)); experiment: SPR Biacore, binder captured via anti-Fab, BCMA-Fc analyte
# T3 construct: also called huBCMA Fc(kih); huBCMA; not shown: human IgG1 hinge-Fc(knob)-avi fused to the ECD, and the unfused Fc(hole) chain
# T3 chain: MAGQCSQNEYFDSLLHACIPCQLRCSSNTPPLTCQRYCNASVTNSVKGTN
# [4] = target: T4, recombinant murine BCMA Fc(kih) (murine, UniProt O88472 2-49, biotinylated at the avi-tag of the Fc knob chain (not in the letters)); experiment: as above
# T4 construct: also called muBCMA Fc(kih); not shown: human IgG1 hinge-Fc(knob)-avi and the unfused Fc(hole) chain
# T4 chain: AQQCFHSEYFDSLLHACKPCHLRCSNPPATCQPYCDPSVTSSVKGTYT
# [5] = target: T3, recombinant human BCMA Fc(kih); experiment: SPR Biacore, bivalent avidity, BCMA-Fc on chip (Experiment 3)
# Protocol: (§2) Assessment of binding of anti-BCMA antibodies to recombinant BCMA by surface plasmon resonance (SPR) as follow. All SPR experiments were performed on a Biacore T200 at 25° C. with HBS-EP as running buffer (0.01 M HEPES pH 7.4, 0.15 M NaCl, 3 mM EDTA, 0.005% Surfactant P20, Biacore, Freiburg/Germany). The avidity of the interaction between anti-BCMA antibodies and recombinant BCMA Fc(kih) (human, cynomolgus and murine) was determined (Tables 38-40). Biotinylated recombinant human, cynomolgus and murine BCMA Fc(kih) were directly coupled on a SA chip following instructions (Biacore, Freiburg/Germany). The immobilization level ranged from 80 to 120 RU. […] The dissociation was monitored for 180 seconds. Bulk refractive index differences were corrected for by subtracting the response obtained on the reference flow cell. Here, the anti-BCMA antibodies were flown over an empty surface previously activated and deactivated as described in the standard amine coupling kit. Apparent kinetic constants were derived using the Biacore T200 Evaluation Software (v 1.0, Biacore AB, Uppsala/Sweden), to fit rate equations for 1:1 Langmuir binding by numerical integration, despite the bivalency of the interaction for comparison purposes.
# [6] = target: T3, recombinant human BCMA Fc(kih); experiment: SPR Biacore, bivalent avidity, BCMA-Fc on chip (Experiment 2)
# Protocol: as §2
# [7] = target: T5, human FolR1 on cells (HeLa, SKOV3, HT-29, transfected HEK) (human, UniProt P15328 25-234); experiment: cell-based or functional assay
# [8] = target: T5, human FolR1 on cells (HeLa, SKOV3, …); experiment: flow cytometry, HeLa cells
# Protocol: as §1
# [9] = target: T5, human FolR1 on cells (HeLa, SKOV3, …); experiment: cell-based or functional assay; remark: listed apart in the source
# [10] = target: T5, human FolR1 on cells (HeLa, SKOV3, …); experiment: flow cytometry on HeLa cells, fluorescently labeled anti-human secondary antibody
# [11] = target: T6, MUC1 SEA-avi-His, biotinylated (human, biotin on avi tag); experiment: SPR (ProteOn XPR36), biotinylated MUC1 on NLC chip, TCB as analyte
# T6 construct: E. coli derived; also called MUC1 antigen; SEA domain of human MUC1
# T6 chain: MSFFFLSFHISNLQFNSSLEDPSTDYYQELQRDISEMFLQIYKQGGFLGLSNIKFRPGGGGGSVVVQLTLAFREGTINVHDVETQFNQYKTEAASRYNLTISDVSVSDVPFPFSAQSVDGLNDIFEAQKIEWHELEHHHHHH
# Protocol: Binding of the produced MUC1-specific TCBs was measured by surface plasmon resonance using a ProteOn XPR36 instrument (Biorad) at 25° C. Biotinylated MUC1 antigen and an unrelated biotinylated antigen were immobilized on NLC chips by neutravidin capture. Immobilization of the antigens was performed as described before. […] Buffer (PBST) was injected along the sixth channel to provide an “in-line” blank for referencing.
# Regeneration was performed in horizontal orientation using 10 mM Glycine, pH 1.5 at a flow rate of 100 ul/min for a contact time of 30 s.
# [12] = target: T5, human FolR1 on cells (HeLa, SKOV3, …); experiment: cell-based or functional assay; remark: listed apart in the source
# T5 sequence (P15328 25-234): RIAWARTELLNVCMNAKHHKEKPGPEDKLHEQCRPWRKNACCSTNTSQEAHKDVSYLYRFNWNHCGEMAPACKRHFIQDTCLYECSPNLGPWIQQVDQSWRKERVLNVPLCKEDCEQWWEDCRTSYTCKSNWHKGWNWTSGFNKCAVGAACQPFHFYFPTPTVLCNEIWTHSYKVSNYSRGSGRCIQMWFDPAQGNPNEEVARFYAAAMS
# T1 sequence (P15328 25-233 limits assumed): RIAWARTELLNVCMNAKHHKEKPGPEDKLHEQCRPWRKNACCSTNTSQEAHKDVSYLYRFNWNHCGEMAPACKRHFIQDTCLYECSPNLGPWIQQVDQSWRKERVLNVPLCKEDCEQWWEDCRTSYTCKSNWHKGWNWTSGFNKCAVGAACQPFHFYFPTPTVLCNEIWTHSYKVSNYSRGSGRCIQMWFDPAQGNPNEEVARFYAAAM
binder,measurement,setting,value
"15H7 Fab (Fab, V domains shown, as m35) VH: QVQLVQSGAEVKKPGASVKVSCKASGYTFTSYYMHWVRQAPGQGLEWMGIINPSGGSTSYAQKFQGRVTMTRDTSTSTVYMELSSLRSEDTAVYYCARNYYLFSTSFDYWGQGTLVTVSS VL: QAVVTQEPSLTVSPGGTVTLTCGSSTGAVTTSNYANWVQEKPGQAFRGLIGGTNKRAPGTPARFSGSLLGGKAALTLSGAQPEDEAEYYCALWYSNLWVFGGGTKLTVL",Kd,[1],13.4 nM
"21A5 IgG (antibody, V domains shown, human IgG1) VH: not shown VL: QAVVTQEPSLTVSPGGTVTLTCGSSTGAVTTSNYANWVQEKPGQAFRGLIGGTNKRAPGTPARFSGSLLGGKAALTLSGAQPEDEAEYYCALWYSNLWVFGGGTKLTVL",EC50 (read off the curve),[2],~6 µg/mL
"pSCHLI373 anti-BCMA IgG (antibody, V domains shown) VH: EVQLVESGGGLVKPGGSLRLSCAASGFSFSNSWMNWVRQAPGKGLEWVGTIRQKTYGGTTDYAAPVKGRFTISRDDSKNTLYLQMNSLKTEDTAVYYCTTGGLFGYWDYWGQGTLVTVSS VL: QAVVTQEPSLTVSPGGTVTLTCGSSTGAVTTSNYANWVQEKPGQAFRGLIGGTNKRAPGTPARFSGSLLGGKAALTLSGAQPEDEAEYYCALWYSNLWVFGGGTKLTVL",Kd,[3],135 nM
same,Kd,[4],724 nM
same,Kd,[5],12.1 nM
same,Kd,[6],23 nM
"16D5 IgG (antibody, V domains shown, human IgG1) VH: not shown VL: QAVVTQEPSLTVSPGGTVTLTCGSSTGAVTTSNYANWVQEKPGQAFRGLIGGTNKRAPGTPARFSGSLLGGKAALTLSGAQPEDEAEYYCALWYSNLWVFGGGTKLTVL",EC50 (read off the curve),[2],~7 µg/mL
"9D11 FolR1 TCB 1+1 head-to-tail (crossfab) (bispecific antibody, V domains shown, 1+1 head-to-tail with CD3 CrossFab on the same arm) VH: QVQLVQSGAEVKKPGASVKVSCKASGYTFTSYYMHWVRQAPGQGLEWMGIINPSGGPTSYAQKFQGRVTMTRDTSTSTVYMELSSLRSEDTAVYYCARGDFAWLDYWGQGTLVTVSS VL: not shown","EC50 killing 24 h (pM), SKOV3",[7],4.73 pM
same,EC50,[8],44.2 nM
"9D11 TCB S100aA (bispecific antibody, human IgG1, kappa, L234A L235A) heavy 1: not shown heavy 2: QVQLVQSGAEVKKPGASVKVSCKASGYTFTSYYMHWVRQAPGQGLEWMGIINPSGGPTSYAQKFQGRVTMTRDTSTSTVYMELSSLRSEDTAVYYCARGDFAWLDYWGQGTLVTVSSASTKGPSVFPLAPSSKSTSGGTAALGCLVKDYFPEPVTVSWNSGALTSGVHTFPAVLQSSGLYSLSSVVTVPSSSLGTQTYICNVNHKPSNTKVDKKVEPKSCDKTHTCPPCPAPEAAGGPSVFLFPPKPKDTLMISRTPEVTCVVVDVSHEDPEVKFNWYVDGVEVHNAKTKPREEQYNSTYRVVSVLTVLHQDWLNGKEYKCKVSNKALGAPIEKTISKAKGQPREPQVCTLPPSRDELTKNQVSLSCAVKGFYPSDIAVEWESNGQPENNYKTTPPVLDSDGSFFLVSKLTVDKSRWQQGNVFSCSVMHEALHNHYTQKSLSLSPGK light 1: not shown light 2: QAVVTQEPSLTVSPGGTVTLTCGSSTGAVTTSNYANWVQEKPGQAFRGLIGGTNKRAPGTPARFSGSLLGGKAALTLSGAQPEDEAEYYCALWYSNLWVFGGGTKLTVLSSASTKGPSVFPLAPSSKSTSGGTAALGCLVKDYFPEPVTVSWNSGALTSGVHTFPAVLQSSGLYSLSSVVTVPSSSLGTQTYICNVNHKPSNTKVDKKVEPKSC","EC50 killing 24 h, SKov-3",[9],0.00194 nM
"14E4 IgG (antibody, V domains shown, human IgG1) VH: not shown VL: EIVLTQSPGTLSLSPGERATLSCRASQSVSSSYLAWYQQKPGQAPRLLIYGASSRATGIPDRFSGSGSGTDSTLTISRLEPEDFAVYYCQQPTSSPITFGQGTKVEIK",binding result,[10],no binding (tested: 50 µg/ml)
"58D6 MUC1-specific CLC TCB (bispecific antibody, also called 58D6 TCB) heavy 1: not shown heavy 2: not shown light: QAVVTQEPSLTVSPGGTVTLTCGSSTGAVTTSNYANWVQEKPGQAFRGLIGGTNKRAPGTPARFSGSLLGGKAALTLSGAQPEDEAEYYCALWYSNLWVFGGGTKLTVLRTQPKAAPSVTLFPPSSEELQANKATLVCLISDFYPGAVTVAWKADSSPVKAGVETTTPSKQSNNKYAASSYLSLTPEQWKSHRSYSCQVTHEGSTVEKTVAPTECS",binding result,[11],binds
"110A5 MUC1-specific CLC TCB (bispecific antibody, also called 110A5 TCB) heavy 1: not shown heavy 2: not shown light: QAVVTQEPSLTVSPGGTVTLTCGSSTGAVTTSNYANWVQEKPGQAFRGLIGGTNKRAPGTPARFSGSLLGGKAALTLSGAQPEDEAEYYCALWYSNLWVFGGGTKLTVLRTQPKAAPSVTLFPPSSEELQANKATLVCLISDFYPGAVTVAWKADSSPVKAGVETTTPSKQSNNKYAASSYLSLTPEQWKSHRSYSCQVTHEGSTVEKTVAPTECS",binding result,[11],binds
Mov19 FolR1 TCB 2+1 inverted (bispecific antibody) chain 1: not shown chain 2: QVQLQQSGAELVKPGASVKISCKASGYSFTGYFMNWVKQSHGKSLEWIGRIHPYDGDTFYNQNFKDKATLTVDKSSNTAHMELLSLTSEDFAVYYCTRYDGSRAMDYWGQGTTVTVSSASTKGPSVFPLAPSSKSTSGGTAALGCLVKDYFPEPVTVSWNSGALTSGVHTFPAVLQSSGLYSLSSVVTVPSSSLGTQTYICNVNHKPSNTKVDKKVEPKSCDKTHTCPPCPAPEAAGGPSVFLFPPKPKDTLMISRTPEVTCVVVDVSHEDPEVKFNWYVDGVEVHNAKTKPREEQYNSTYRVVSVLTVLHQDWLNGKEYKCKVSNKALGAPIEKTISKAKGQPREPQVCTLPPSRDELTKNQVSLSCAVKGFYPSDIAVEWESNGQPENNYKTTPPVLDSDGSFFLVSKLTVDKSRWQQGNVFSCSVMHEALHNHYTQKSLSLSPGK chain 3: DIELTQSPASLAVSLGQRAIISCKASQSVSFAGTSLMHWYHQKPGQQPKLLIYRASNLEAGVPTRFSGSGSKTDFTLNIHPVEEEDAATYYCQQSREYPYTFGGGTKLEIKRTVAAPSVFIFPPSDEQLKSGTASVVCLLNNFYPREAKVQWKVDNALQSGNSQESVTEQDSKDSTYSLSSTLTLSKADYEKHKVYACEVTHQGLSSPVTKSFNRGEC,"EC50 killing 24 h, SKov-3",[12],0.00075 nM
same,"EC50 killing 48 h, SKov-3",[12],0.05 pM
